# In patent US9012420B2, “Aptamer for chymase, and use thereof” (Ribomic Inc., priority 2009, dated 2015):
# T1: chymase (Homo sapiens, UniProt P23946 P23946:22-247)
# T1 sequence: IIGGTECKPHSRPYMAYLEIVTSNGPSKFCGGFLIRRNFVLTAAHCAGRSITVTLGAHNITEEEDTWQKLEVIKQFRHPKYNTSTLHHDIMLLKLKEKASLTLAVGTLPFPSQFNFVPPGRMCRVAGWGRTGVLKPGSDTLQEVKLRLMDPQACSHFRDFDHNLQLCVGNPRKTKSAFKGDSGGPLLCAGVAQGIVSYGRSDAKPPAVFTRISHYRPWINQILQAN
# B1: 56(26) (ssRNA)
# RNA: GGGUUAGAUAGAGUUAAAAACCC
# modifications: 2'-F U and C; 2'-OMe 1-3,7,8,10,13,16-20; 5' and 3' idT
# B2: 56(48) (mixed)
# RNA: GGGUUAGAUAGAGUUAAAAACCC
# modifications: 2'-F U; 2'-OMe 1-3,7,8,10,13,16-20; DNA C21-C23; 5' and 3' idT
# B3: 56(50) (mixed)
# RNA: GGGUUAGAUAGAGUUAAAAACCC
# modifications: 2'-F U and C; 2'-OMe 1-3,7,10,13,16-20; DNA A8; 5' and 3' idT
# B4: 56(32) (ssRNA)
# RNA: GGGUUAGAUAGAGUUAAAAACCC
# modifications: 2'-F U and C; 2'-OMe 1-3,10,13,16-20; 5' and 3' idT
# B5: 56(34) (ssRNA)
# RNA: GGGUUAGAUAGAGUUAAAAACCC
# modifications: 2'-F U and C; 2'-OMe 1-3,7,10,13,16-20; PS 6-7; 5' and 3' idT
# B6: 56(31) (ssRNA)
# RNA: GGGUUAGAUAGAGUUAAAAACCC
# modifications: 2'-F U and C; 2'-OMe 1-3,7,10,13,16-20; 5' and 3' idT
# B7: 56(23) (ssRNA)
# RNA: GGGUUAGAUAGAGUUAAAAACCC
# modifications: 2'-F U and C; 2'-OMe 1-3,7,8,10,13,16-20; PS 6-7
# B8: 56(28) (ssRNA)
# RNA: GGGUUAGAUAGAGUUAAAAACCC
# modifications: 2'-F U and C; 2'-OMe 1-3,7,8,10,13,16-20; PS 6-7; 5' and 3' idT
# B9: SEQ 71 (mixed)
# mixed: GGGUUAGAUAGAGTUAAAAACCC
# modifications: 2'-F U and C; 2'-OMe 1-3,7,8,10,13,16-20; DNA T14; 5' and 3' idT
# B10: 56(22) (ssRNA)
# RNA: GGGUUAGAUAGAGUUAAAAACCC
# modifications: 2'-F U and C; 2'-OMe 1-3,7,8,10,13,16-20; PS 5-6
# B11: 56(43) (ssRNA)
# RNA: GGGUUAGAUAGAGUUAAAAACCC
# modifications: 2'-F U and C; 2'-OMe 1-3,7,8,10,13,16-20; 5' peptide 1 (Phe-Cys, disulfide); 3' idT
# B12: 56(29) (ssRNA)
# RNA: GGGUUAGAUAGAGUUAAAAACCC
# modifications: 2'-F U and C; 2'-OMe 1-3,7,8,10,13,16-20; PS 5-6,6-7; 5' and 3' idT
# B13: 56(45) (ssRNA)
# RNA: GGGUUAGAUAGAGUUAAAAACCC
# modifications: 2'-F U and C; 2'-OMe 1-3,7,8,10,13,16-20; 5' idT; 3' PEG 40 kDa
# B14: 69(2) (ssRNA)
# RNA: AAAGGGUUAGAUAGAGUUAAAAACCC
# modifications: 2'-F U and C; 2'-OMe 1-6,10,11,13,16,19-23; 5' and 3' idT
# B15: SEQ 70 (mixed)
# mixed: GGGTTAGAUAGAGUUAAAAACCC
# modifications: 2'-F U and C; 2'-OMe 1-3,7,8,10,13,16-20; DNA T4,T5; 5' and 3' idT
# B16: 69(1) (ssRNA)
# RNA: AAAGGGUUAGAUAGAGUUAAAAACCC
# modifications: 2'-F U and C; 2'-OMe 1-6,10,11,13,16,19-23; PS 9-10; 5' and 3' idT
# B17: 56(33) (ssRNA)
# RNA: GGGUUAGAUAGAGUUAAAAACCC
# modifications: 2'-F U and C; 2'-OMe 1-3,8,10,13,16-20; PS 6-7; 5' and 3' idT
# B18: 56(30) (ssRNA)
# RNA: GGGUUAGAUAGAGUUAAAAACCC
# modifications: 2'-F U and C; 2'-OMe 1-3,8,10,13,16-20; 5' and 3' idT
# B19: 56(46) (ssRNA)
# RNA: GGGUUAGAUAGAGUUAAAAACCC
# modifications: 2'-F U and C; 2'-OMe 1-3,7,8,10,13,16-20; 5' and 3' idT
# B20: 56(42) (ssRNA)
# RNA: GGGUUAGAUAGAGUUAAAAACCC
# modifications: 2'-F U and C; 2'-OMe 1-3,7,8,10,13,16-20; 5' cholesterol; 3' idT
# B21: 56(35) (ssRNA)
# RNA: GGGUUAGAUAGAGUUAAAAACCC
# modifications: 2'-F U and C; 2'-OMe 1-3,10,13,16-20; PS 6-7; 5' and 3' idT
# B22: 56(51) (mixed)
# RNA: GGGUUAGAUAGAGUUAAAAACCC
# modifications: 2'-F U and C; 2'-OMe 1-3,7,10,13,16-20; DNA A8; 5' and 3' idT
# B23: 56(44) (ssRNA)
# RNA: GGGUUAGAUAGAGUUAAAAACCC
# modifications: 2'-F U and C; 2'-OMe 1-3,7,8,10,13,16-20; 5' peptide 2 (Cys-Phe, disulfide); 3' idT
# B24: 56(47) (ssRNA)
# RNA: GGGUUAGAUAGAGUUAAAAACCC
# modifications: 2'-F U and C; 2'-OMe 1-3,7,8,10,13,16-20; 5' and 3' idT
# Key:
# [1] = biological target: T1, chymase; assay: inhibition; angiotensin I; recombinant 0.326; conditions: tags: human skin mast cell, Calbiochem
# Description: (§1) The total volume of solution for an enzyme reaction in the assay was set to 50 μL, and the reaction was performed in solution C buffer. First, 0.3-0.75 ng of chymase (recombinant, (manufactured by SIGMA) or native (manufactured by Calbiochem)) was diluted with solution C to give 5 μL thereof. Here, the recombinant is chymase expressed by yeast, and the native is chymase purified from human skin mast cell. The nucleic acid was serially diluted with solution C at a concentration of 0.0027-2 μM to give 25 μL thereof. The chymase solution (5 μL) and the nucleic acid solution (25 μL) were mixed, and the mixture was incubated at 37° C. for 5 min. […] The whole mixture was centrifuged at 4° C., 14000 rpm for 10 min, and the supernatant (30 μL) was used for the next fluorescence induction reaction.
# (§2) The above-mentioned supernatant (30 μL) was added to a 96 well plate (black, manufactured by Costar), a solution (15 μL) of 2% o-phthalaldehyde (manufactured by SIGMA) in methanol and 0.3M NaOH solution (170 μL) were added to each well, and the mixture was incubated at room temperature for 10 min. […] The plate was set on a microplate reader SpectraMax190 (manufactured by Molecular device) and the fluorescence intensity was measured at an excitation wavelength of 355 nm and a fluorescence wavelength of 460 nm.
# [2] = biological target: T1, chymase; assay: inhibition; Suc-AAPF-MCA, 37 C, solution C; conditions: tags: recombinant, expressed in yeast, SIGMA
# Description: Here, Suc is a protecting succinyl group, and MCA is a 4-methylcoumaryl-7-amide group; upon cleavage of the C-terminal side of phenylalanine, AMC (7-amino-4-methyl-coumarine) is released. By detecting the fluorescence of this AMC, the enzyme activity of chymase can be determined. The assay was performed using a 96-well plate (F16 Black Maxisorp Fluoronunc, manufactured by Nunc), with a reaction mixture volume of 100 μL, in solution C as a buffer solution. First, each nucleic acid was serially diluted to 0.0027-2 μM concentrations in solution C to obtain 50 μL solutions. After 10 μL of the 1 mM substrate prepared in solution C was added thereto, the plate was set to the microplate reader SpectraMax190 (manufactured by Molecular Devices Corporation), and incubated at 37° C. for 5 minutes. Separately, 0.05 μg (or 0.005 μg) of chymase (recombinant, manufactured by SIGMA) was diluted in solution C to obtain a 40 μL chymase solution, and incubated at 37° C. for 5 minutes. The chymase solution was added to the mixture of the nucleic acid and substrate to initiate an enzyme reaction. The final chymase concentration in the reaction mixture was 16.7 nM (or 1.67 nM), the final substrate concentration being 100 μM. The plate containing the reaction mixture was set to the microplate reader SpectraMax190 (manufactured by Molecular Devices Corporation), and examined for time-dependent changes in the fluorescence intensity at 37° C. for 5 minutes (or 30 minutes) (excitation wavelength 380 nm, detection wavelength 460 nm). A linear approximation of the increase in the fluorescence of the AMC released from the substrate by chymase activity was generated, and its slope was taken as the initial velocity […]. For control, samples were treated and analyzed in the same manner in two cases: use of a 30N or 40N (a nucleotide of 30 or 40 consecutive bases represented by N; N is A, G, C or T) nucleic acid pool (negative control), and use of chymostatin, a known chymotrypsin-like serine protease inhibitor (positive control). Taking the initial reaction velocity without the nucleic acid and inhibitor (V_0) as a 100% enzyme activity, the inhibitory rate of each test substance was calculated using the following equation: […]
# The chymase inhibitory activity was measured in the same manner as in Example 3.
# [3] = biological target: T1, chymase; assay: inhibition; angiotensin I; recombinant 0.394; conditions: tags: human skin mast cell, Calbiochem
# Description: as §1, §2
# [4] = biological target: T1, chymase; assay: inhibition; angiotensin I; recombinant 0.153; conditions: tags: human skin mast cell, Calbiochem
# Description: as §1, §2
# [5] = biological target: T1, chymase; assay: inhibition; angiotensin I; recombinant 0.078; conditions: tags: human skin mast cell, Calbiochem
# Description: as §1, §2
# [6] = biological target: T1, chymase; assay: inhibition; angiotensin I; recombinant 0.057; conditions: tags: human skin mast cell, Calbiochem
# [7] = biological target: T1, chymase; assay: inhibition; angiotensin I; recombinant 0.089; conditions: tags: human skin mast cell, Calbiochem
# Description: as §1, §2
# [8] = biological target: T1, chymase; assay: inhibition; angiotensin I; recombinant 0.119; conditions: tags: human skin mast cell, Calbiochem
# Description: as §1, §2
# [9] = biological target: T1, chymase; assay: inhibition; angiotensin I; recombinant 0.137; conditions: tags: human skin mast cell, Calbiochem
# [10] = biological target: T1, chymase; assay: inhibition; angiotensin I; recombinant 0.161; conditions: tags: human skin mast cell, Calbiochem
# Description: as §1, §2
# [11] = biological target: T1, chymase; assay: inhibition; angiotensin I; recombinant 0.237; conditions: tags: human skin mast cell, Calbiochem
# [12] = biological target: T1, chymase; assay: inhibition; angiotensin I; recombinant 0.328; conditions: tags: human skin mast cell, Calbiochem
# Description: as §1, §2
# [13] = biological target: T1, chymase; assay: inhibition; angiotensin I; recombinant 0.080; conditions: tags: human skin mast cell, Calbiochem
# [14] = biological target: T1, chymase; assay: inhibition; angiotensin I; recombinant 0.377; conditions: tags: human skin mast cell, Calbiochem
# Description: as §1, §2
# [15] = biological target: T1, chymase; assay: inhibition; angiotensin I; recombinant 0.289; conditions: tags: human skin mast cell, Calbiochem
# Description: as §1, §2
# [16] = biological target: T1, chymase; assay: inhibition; angiotensin I; recombinant 0.239; conditions: tags: human skin mast cell, Calbiochem
# Description: as §1, §2
# [17] = biological target: T1, chymase; assay: inhibition; angiotensin I; recombinant 0.125; conditions: tags: human skin mast cell, Calbiochem
# Description: as §1, §2
# [18] = biological target: T1, chymase; assay: inhibition; angiotensin I; recombinant 0.085; conditions: tags: human skin mast cell, Calbiochem
# [19] = biological target: T1, chymase; assay: inhibition; angiotensin I; recombinant 0.210; conditions: tags: human skin mast cell, Calbiochem
# Description: as §1, §2
# [20] = biological target: T1, chymase; assay: inhibition; angiotensin I; recombinant 0.426; conditions: tags: human skin mast cell, Calbiochem; label: 5' biotin
# [21] = biological target: T1, chymase; assay: inhibition; angiotensin I; recombinant 0.687; conditions: tags: human skin mast cell, Calbiochem
# Description: as §1, §2
# [22] = biological target: T1, chymase; assay: inhibition; angiotensin I; recombinant 0.039; conditions: tags: human skin mast cell, Calbiochem
# [23] = biological target: T1, chymase; assay: inhibition; angiotensin I; recombinant 0.310; conditions: tags: human skin mast cell, Calbiochem; label: 5' biotin
# [24] = biological target: T1, chymase; assay: inhibition; angiotensin I; recombinant 0.414; conditions: tags: human skin mast cell, Calbiochem
# Description: as §1, §2
# [25] = biological target: T1, chymase; assay: inhibition; angiotensin I; recombinant 0.419; conditions: tags: human skin mast cell, Calbiochem; label: 3' biotin
binder,measurement,setting,value
B1,IC50,[1],743 nM
same,IC50,[2],54 nM
B2,IC50,[3],621 nM
same,IC50,[2],36 nM
B3,IC50,[4],325 nM
same,IC50,[2],27 nM
B4,IC50,[5],185 nM
B5,IC50,[6],162 nM
same,IC50,[2],31 nM
B6,IC50,[7],266 nM
B7,IC50,[8],360 nM
same,IC50,[2],32 nM
B8,IC50,[9],410 nM
same,IC50,[2],44 nM
B9,IC50,[10],341 nM
B10,IC50,[11],563 nM
same,IC50,[2],52 nM
B11,IC50,[12],591 nM
same,IC50,[2],35 nM
B12,IC50,[13],366 nM
same,IC50,[2],36 nM
B13,IC50,[14],303 nM
same,IC50,[2],59 nM
B14,IC50,[15],752 nM
same,IC50,[2],48 nM
B15,IC50,[16],478 nM
B16,IC50,[17],480 nM
same,IC50,[2],44 nM
B17,IC50,[18],291 nM
same,IC50,[2],35 nM
B18,IC50,[19],521 nM
same,IC50,[2],34 nM
B19,IC50,[20],742 nM
same,IC50,[2]; label: 5' biotin,49 nM
B20,IC50,[21],601 nM
same,IC50,[2],71 nM
B21,IC50,[22],120 nM
same,IC50,[2],24 nM
B22,IC50,[23],429 nM
same,IC50,[2]; label: 5' biotin,29 nM
B23,IC50,[24],643 nM
same,IC50,[2],42 nM
B24,IC50,[25],542 nM
same,IC50,[2]; label: 3' biotin,37 nM
